Assay results published in patent US20090137484A1, “Neuronal Network-Interacting Peptide” (NATIONAL UNIVERSITY OF SINGAPORE, priority 2004, published 2009).
One block for each molecule: values may come before it. Where a SMILES comes first, the peptide text is derived from it. Where no end group is shown, it is not given here.

T1: Grb4 SH3_2 (second SH3 domain, Grb4 residues 115-170) (Homo sapiens, UniProt O43639)
T1 construct: corresponding to the human Grb4 residues 5-61; 115-171 and 199-257 respectively; His-tag; made in house; host or cells: E. coli BL21
T1 sequence (O43639 115-171): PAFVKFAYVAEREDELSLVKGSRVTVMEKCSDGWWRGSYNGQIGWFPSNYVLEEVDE

T2: Grb4 SH3_3 (third SH3 domain, Grb4 residues 199-257) (Homo sapiens, UniProt O43639)
T2 construct: corresponding to the human Grb4 residues 5-61; 115-171 and 199-257 respectively; His-tag; made in house; host or cells: E. coli BL21
T2 sequence (O43639 198-256): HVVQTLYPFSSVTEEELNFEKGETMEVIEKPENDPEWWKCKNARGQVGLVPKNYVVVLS

T3: Grb4 SH3_3 (third SH3 domain, Grb4 residues 199-257) (Homo sapiens, UniProt O43639)
T3 construct: corresponding to the human Grb4 residues 5-61; 115-171 and 199-257 respectively; His-tag; made in house; host or cells: E. coli BL21
T3 sequence (O43639 199-257): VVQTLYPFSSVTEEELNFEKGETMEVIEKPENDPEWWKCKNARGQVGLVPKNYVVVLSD

T4: Grb4 SH3_23 (second and third SH3 domains, Grb4 residues 115-257) (Homo sapiens, UniProt O43639)
T4 construct: Grb4 (115-257) containing the second and third SH3 domains were expressed; His-tag; made in house; host or cells: E. coli BL21
T4 sequence (O43639 115-257): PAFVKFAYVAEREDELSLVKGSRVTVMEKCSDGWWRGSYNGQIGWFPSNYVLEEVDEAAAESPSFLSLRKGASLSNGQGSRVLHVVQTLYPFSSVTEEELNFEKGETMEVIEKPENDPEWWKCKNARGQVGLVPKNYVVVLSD

B1: Nogo-A (1-200): recombinant N-terminal fragment of human Nogo-A, residues 1-200, expressed in E. coli (protein)
chain: MEDLDQSPLVSSSDSPPRPQPAFKYQFVREPEDEEEEEEEEEEDEDEDLEELEVLERKPAAGLSAAPVPTAPAAGAPLMDFGNDFVPPAPRGPLPAAPPVAPERQPSWDPSPVSSTVPAPSPLSAAAVSPSKLPEDDEPPARPPPPPPASVSPQAEPVWTPPAPAPAAPPSTPAAPKRRGSSGSVDETLFALPAASEPVI
B2: third Grb4 SH3 domain, Grb4 residues 199-257 (other, human, UniProt O43639 199-257, looked up)
chain: T3 sequence (O43639 199-257)
modifications: also: His-tag, sequence and removal not given here, 15N-labelled
notes: range 199-257; Expressed in E. coli as a His-tagged protein; It was 15N-labelled for NMR; also called SH3_3
B3: Nogo-A (171-181) Ac-STPAAPKRRGS-NH2 (peptide)
peptide: Ac-STPAAPKRRGS-NH2
notes: Chemically synthesised by the Fmoc method; also called 11-residue Nogo-A (171-181) peptide
B4: Nogo-A (32-200) (other)
chain: EDEEEEEEEEEEDEDEDLEELEVLERKPAAGLSAAPVPTAPAAGAPLMDFGNDFVPPAPRGPLPAAPPVAPERQPSWDPSPVSSTVPAPSPLSAAAVSPSKLPEDDEPPARPPPPPPASVSPQAEPVWTPPAPAPAAPPSTPAAPKRRGSSGSVDETLFALPAASEPVI
notes: Recombinant, cloned into pET32a and expressed in E. coli

Legend:
[1] = target: T1, Grb4 SH3_2 (second SH3 domain, Grb4 residues 115-170); experiment: 1H-15N NMR HSQC titration of Nogo fragments with Grb4 SH3_2; assay type: binding; conditions: for Binding detected by NMR: Grb4 fragment SH3_2
Method: (§1) All calorimetric titrations were performed on a Microcal VP ITC machine (Microcal, USA). The protein/peptide samples were dissolved in the 50 mM Tris buffer (pH 7.0), with 3 mM 2-mercaptoethanol. After centrifugation for 15 min, the samples were degassed for 15 min to avoid the bubble formation. The Grb4 SH3 samples with a concentration of 0.025 or 0.05 mM were placed in the 1.4 ml reaction cell and 1.0 mM Nogo samples were loaded into the […] injection syringe. All titrations were performed at 25° C. and the obtained data was fitted using the ORIGIN software (Originlab Corporation). NMR experiments were performed on a 500 MHz Bruker DRX spectrometer equipped with an actively shielded cryoprobe and an 800 MHz Bruker Avance spectrometer (Sattler, M., et al., (1999) Prog. NMR Spectrosc. 34, 93-158.). NMR data was processed with NMRPipe (Delaglio, F et al., (1995) J. Biomol. NMR 6, 277-293) and analysed with NMRView (Johnson, B. A. & Blevins, R. A. (1994). J. Biomol. NMR 4, 603-614.).
The ^1H-^15N HSQC titration experiments were conducted according to our previous procedure (Song J. (2003) J Biol Chem. 278, 24714-20). For structure determination, backbone sequential assignments were achieved by analysing HNCACB, CBCA(CO)NH, HNCO experiments while side chain assignments were obtained from (H)CC(CO)NH, H(CCO)NH, HCCH-TOCSY, ^15N-edited TOCSY-HSQC and NOESY-HSQC. Structure determination of the third Grb4 SH3 domain was conducted by a standard CNS (Crystallography and NMR System) protocol as described in our previous publication (Li M, et al., 2004, Eur J. Biochem. 271, 3512-22) with NOE constraints derived from ^15N- and ^13C-NOESY spectra and dihedral angle constraints from TALOS prediction using 5 different chemical shifts. The accepted NMR structure with the lowest energy was selected for analysis and manipulation to generate FIG. 1 by use of MolMol graphic software (Koradi, R., et al., (1996) J. Mol. Graphics. 14, 51-55.). […]

[2] = target: T2, Grb4 SH3_3 (third SH3 domain, Grb4 residues 199-257); experiment: Isothermal titration calorimetry of Nogo fragments with Grb4 SH3_3; assay type: binding
Method: as §1
Both Nogo-A (1-200) and Grb4 (115-257) were further dissected into different Nogo fragments and two different […] domains based on sequence alignment as detailed in Table 1 and the interactions among them were studied first by NMR HSQC titration followed by isothermal titration calorimetry (ITC) to obtain thermodynamic parameters of the binding interaction. As presented in Table 2, two complete sets of thermodynamic parameters were derived from ITC measurements, one set for the interaction between Nogo-A (32-200) and the third Grb4 SH3 domain and another set for the interaction between the 11-residue Nogo-A (171-181) and the third Grb4 SH3 domain. […] Many factors account for this observation. One possibility is that in the Nogo-A (32-200) protein, this 11-residue binding region is less accessible. Alternatively, the presence of other regions without any significant contribution to the binding will unavoidably reduce the binding affinity.

[3] = target: T3, Grb4 SH3_3 (third SH3 domain, Grb4 residues 199-257); experiment: 1H-15N NMR HSQC titration of Nogo fragments with Grb4 SH3_3; assay type: binding; conditions: two-fold excess of the peptide (FIG. 1b)
Method: as §1
(§2) The ^1H-^15N HSQC titration experiments were conducted according to our previous procedure (Song J. (2003) J Biol Chem. 278, 24714-20). […]
To further validate the identified binding interaction, we determined the solution structure of the third Grb4 SH3 domain by use of heteronuclear tripleresonance NMR methodology as described briefly in Examples 1 and 2. […]

[4] = target: T4, Grb4 SH3_23 (second and third SH3 domains, Grb4 residues 115-257); experiment: 1H-15N NMR HSQC titration of Nogo fragments with Grb4 SH3_23; assay type: binding; conditions: four-fold excess of unlabelled Nogo protein; pH 6.8, 20° C. (FIG. 2)
Method: as §1, §2
The present inventors also determined whether a cross-talk existed between Nogo and Eph receptor-ephrinB mediated signalling networks, and whether Grb4 was the convergence point. […]

Nogo-A (32-200) = target: B4; experiment: ITC at 25 C, Nogo in syringe, SH3_3 (25 µM) in cell, Tris pH 7.0; design: ΔS: unit not given here
Method: as §1

[5] = target: B2; experiment: ITC at 25 C, peptide in syringe, SH3_3 (50 µM) in cell, Tris pH 7.0; design: ΔS: unit not given here
Method: as §1

[6] = target: B2; experiment: ITC, comparison of the two sets of Table 2
Method: as §1

[7] = target: B2; experiment: ITC at 25 C, Nogo in syringe, SH3_3 (25 µM) in cell, Tris pH 7.0; design: ΔS: unit not given here
Method: as §1

[8] = target: T4, Grb4 SH3_23 (second and third SH3 domains, Grb4 residues 115-257); experiment: Isothermal titration calorimetry of Nogo fragments with Grb4 SH3_23; assay type: binding; conditions: Grb4 fragment SH3_23
Method: as §1
(§3) Both Nogo-A (1-200) and Grb4 (115-257) were further dissected into different Nogo fragments and two different […] domains based on sequence alignment as detailed in Table 1 and the interactions among them were studied first by NMR HSQC titration followed by isothermal titration calorimetry (ITC) to obtain thermodynamic parameters of the binding interaction. […]

[9] = target: T1, Grb4 SH3_2 (second SH3 domain, Grb4 residues 115-170); experiment: Isothermal titration calorimetry of Nogo fragments with Grb4 SH3_2; assay type: binding; conditions: Grb4 fragment SH3_2
Method: as §1, §3

[10] = ITC at 25° C., Tris pH 7.0, Nogo in syringe, SH3_3 in cell (25 or 50 μM)

Binding with the second Grb4 SH3 domain (specificity statement) [1]: no significant binding
Ka [2, 10]: 357000 ± 21000 M⁻¹
Kd [2, 10]: 2.8 µM
Stoichiometry n [2, 10]: 0.95 ± 0.068
ΔH [2, 10]: −3,310 ± 499 cal/mol
ΔS [2, 10]: 14.3 cal/(mol·K)
Binding affinity to the third Grb4 SH3 domain relative to Nogo-A (32-200) ([2]; higher than Nogo-A (32-200)): about 30 fold
HSQC peaks of the 15N-labeled third SH3 domain undergoing a significant shift [3]: ~50%
Molecule: CC(=O)N[C@@H](CO)C(=O)N[C@H](C(=O)N1CCC[C@H]1C(=O)N[C@@H](C)C(=O)N[C@@H](C)C(=O)N1CCC[C@H]1C(=O)N[C@@H](CCCCN)C(=O)N[C@@H](CCCNC(=N)N)C(=O)N[C@@H](CCCNC(=N)N)C(=O)NCC(=O)N[C@@H](CO)C(N)=O)[C@@H](C)O [Nogo-A (171-181), Ac-STPAAPKRRGS-NH2] (Ac-STPAAPKRRGS-NH2)

Binding detected by ITC ([2]; Grb4 fragment SH3_3): Very weak
Molecule: Ac-ARPPPPPPAS-NH2 [Nogo-A (141-150), chemically synthesised peptide, fragment 141-150 of Nogo A]

Molecule: B1
Binding detected by NMR [1]: Very weak
Shifts of HSQC peaks of 15N-labeled Grb4 (115-257) [4]: significant shifts of the HSQC peaks

Molecule: B2
Ka (Nogo-A (32-200)): 11500 M⁻¹
Kd (Nogo-A (32-200)): 87 µM

Molecule: B3
Ka [5]: 357000 M⁻¹
Stoichiometry n [5]: 0.95
ΔH [5]: -3.31 kcal/mol
ΔS [5]: 14.3
fold higher binding affinity than Nogo-A (32-200) [6]: ~30 fold

Molecule: B4
Binding detected by NMR [1]: Very weak
Stoichiometry n [7]: 1.13
ΔH [7]: 69.6 kcal/mol
ΔS [7]: 252
Binding detected by ITC [8]: Very weak
Ka [2, 10]: 11500 ± 2200 M⁻¹
Kd [2, 10]: 87 µM
Binding detected by ITC [9]: Very weak
